The values that follow come from patent publication US5645817, “Granulocyte-binding antibody constructs, their preparation and use” (Behringwerke Aktiengesellschaft, dated 1997).

The assay deals with carcinoembryonic antigen (CEA) (Homo sapiens (Human), UniProt P06731). Nature of the assay: characterisation according to Example 2 (ELISA on CEA); told in words. On the procedure: Supernatants from BHK cells, which had been transfected with the DNA constructs of the second version of the hum 250/183, were tested for their content of humMab and for the specificity of the humMab.
However, the polystyrene plates were coated with 75 μl of CEA at a concentration of 15 μg/ml. Equal volumes of different concentrations (consecutively dilutions 1:2)
On the technique in general: ELISA stands for enzyme-linked immunosorbent assay.

B1: hum 250/183 (second version of the humanized Mab BW 250/183) (antibody, V domains shown)
VH: QVQLQESGPGLVRPSQTLSLTCTVSGFSDYYMNWVRQPPGRGLEWIGFISNKPNGHTTEYSASVKGRVTMLRDTSKNQFSLRLSSVTAADTAVYYCARDKGIRWYFDVWGQGSLVTVSS
VL: DIQMTQSPSSLSASVGDRVTITCRASSSVSYMHWYQQKPGKAPKPLIYATSNLASGVPSRFSGSGSGTDFTFTISSLQPEDIATYYCQQWSSNPLTFGQGTKVEIKR
As for B1, the binding result is recorded as “binds”.
